Substitutions are numbered along the chain they refer to. Values belong to the binder of their own block, whether it stands above or below them.
Target: T1, CD123 (Homo sapiens (Human), UniProt P26951 19-305, limits assumed)
T1 construct: also called CD123-Signal
T1 sequence: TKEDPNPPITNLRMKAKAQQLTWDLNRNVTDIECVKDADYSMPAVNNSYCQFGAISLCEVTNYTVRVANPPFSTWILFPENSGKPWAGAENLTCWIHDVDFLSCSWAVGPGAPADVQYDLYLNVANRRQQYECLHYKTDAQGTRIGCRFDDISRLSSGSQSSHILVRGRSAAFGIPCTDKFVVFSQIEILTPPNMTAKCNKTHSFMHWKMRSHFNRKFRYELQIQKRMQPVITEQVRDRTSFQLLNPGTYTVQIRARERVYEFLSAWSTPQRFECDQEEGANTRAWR
Assay: ELISA, format not described
Parameters: unit not given here

- ELISA_avg: 3.5
B1: D domain SEQ ID NO: 730 (designed binder)
chain: MGSWVEFWHRLDAIKARLNALGGSEAELAAFEKEIAAFESELQAYKGKGNPEVEDLRWYAADFRLILQAYRHN

- ELISA_avg: 6.3
B2: D domain SEQ ID NO: 724 (designed binder)
chain: MGSWYEFEDRLDAIQWRLWALGGSEAELAAFEKEIAAFESELQAYKGKGNPEVEFLRESAANIRQHLQAYRHN

- ELISA_avg: 3.2
B3: D domain SEQ ID NO: 725 (designed binder)
chain: B2 chain with Y5S, D9Y, D12F, Q15E, W16N, W19D, S59E, N62M, H66L

- ELISA_avg: 7.1
B4: D domain SEQ ID NO: 769 (designed binder)
chain: MGSWFEFVDRLEAIEMRLFALGGSEAELAAFEKEIAAFESELQAYKGKGNPEVELLRWRAAMIRYDLQAYRHN

- ELISA_avg: 4.1
B5: D domain SEQ ID NO: 744 (designed binder)
chain: MGSWEEFEDRLWAIEDRLWALGGSEAELAAFEKEIAAFESELQAYKGKGNPEVEILRYDAAYIREILQAYRHN

- ELISA_avg: 15.3
B6: D domain SEQ ID NO: 763 (designed binder)
chain: B5 chain with E5W, W12M, E15Y, W19Y, I55Y, Y58A, D59E, Y62L, I66T

- ELISA_avg: 4.7
B7: D domain SEQ ID NO: 764 (designed binder)
chain: B5 chain with E5F, W12Y, W19Y, I55Y, Y58W, D59G, Y62T, E65D, I66E

- ELISA_avg: 3.2
B8: D domain SEQ ID NO: 749 (designed binder)
chain: B5 chain with E5Y, E8D, D9S, W12M, I55Y, Y58Q, D59E, Y62E, E65M

- ELISA_avg: 7.6
B9: D domain SEQ ID NO: 748 (designed binder)
chain: B5 chain with E5W, D9H, W12F, I55F, Y58D, D59Y, Y62E, E65D, I66Y

- ELISA_avg: 6.2
B10: D domain SEQ ID NO: 756 (designed binder)
chain: B5 chain with E5Y, D9Y, W12E, I55Y, Y58E, D59E, Y62W, E65V, I66W

- ELISA_avg: 6.3
B11: D domain SEQ ID NO: 758 (designed binder)
chain: B2 chain with D9H, Q15Y, W16D, F55W, S59E, N62W, Q65L, H66W

- ELISA_avg: 5.4
B12: D domain SEQ ID NO: 754 (designed binder)
chain: B5 chain with E5Y, D9E, D16E, W19Y, I55Y, D59E, Y62W, E65D, I66F

- ELISA_avg: 4.2
B13: D domain SEQ ID NO: 746 (designed binder)
chain: B5 chain with E5Y, E8W, W12E, I55F, D59S, Y62E, E65Y, I66Q

- ELISA_avg: 4.9
B14: D domain SEQ ID NO: 768 (designed binder)
chain: B4 chain with F5V, M16D, L55F, W58D, R59Q, M62Y, Y65F, D66M

- ELISA_avg: 6.2
B15: D domain SEQ ID NO: 760 (designed binder)
chain: B5 chain with E5V, D9N, W12E, D16N, I55W, Y58E, Y62Q, E65M, I66M

- ELISA_avg: 4
B16: D domain SEQ ID NO: 770 (designed binder)
chain: B5 chain with E5W, D9M, W12E, W19F, I55S, Y58W, D59E, Y62F, E65D

- ELISA_avg: 3.4
B17: D domain SEQ ID NO: 750 (designed binder)
chain: B5 chain with E5Y, D9W, W12M, I55Y, Y58H, D59E, Y62E, E65D, I66V

- ELISA_avg: 3
B18: D domain SEQ ID NO: 771 (designed binder)
chain: B4 chain with V8E, D9I, M16D, L55F, W58D, R59E, M62E, Y65Q, D66V

- ELISA_avg: 6
B19: D domain SEQ ID NO: 759 (designed binder)
chain: B2 chain with D9W, Q15Y, W16D, W19G, F55W, S59D, N62E, Q65A, H66L

- ELISA_avg: 6
B20: D domain SEQ ID NO: 761 (designed binder)
chain: B5 chain with E5Y, D9E, W12E, I55W, Y58E, D59Q, Y62F, E65T, I66M

- ELISA_avg: 11.3
B21: D domain SEQ ID NO: 751 (designed binder)
chain: MGSWYEFYNRLDAIEDRLWALGGSEAELAAFEKEIAAFESELQAYKGKGNPEVEYLRQEAADIRGQLQAYRHN

- ELISA_avg: 6.1
B22: D domain SEQ ID NO: 755 (designed binder)
chain: B21 chain with Y8E, D12E, D16E, Y55M, Q58E, D62F, G65D, Q66W

- ELISA_avg: 8.9
B23: D domain SEQ ID NO: 767 (designed binder)
chain: B5 chain with E8T, W19Y, I55W, Y58D, D59E, Y62F, E65K, I66S

- ELISA_avg: 4.6
B24: D domain SEQ ID NO: 753 (designed binder)
chain: B21 chain with Y8W, N9D, D12E, D16E, Q58L, G65R, Q66I

- ELISA_avg: 3
B25: D domain SEQ ID NO: 772 (designed binder)
chain: B21 chain with N9Q, D12E, W19F, Y55W, Q58D, D62E, G65V, Q66V

- ELISA_avg: 6.4
B26: D domain SEQ ID NO: 752 (designed binder)
chain: B21 chain with Y5W, Y8H, N9D, D12E, Q58I, G65R

- ELISA_avg: 6.9
B27: D domain SEQ ID NO: 762 (designed binder)
chain: MGSWFEFEWRLEAIFDRLYALGGSEAELAAFEKEIAAFESELQAYKGKGNPEVEVLRAEAAEIRLRLQAYRHN

- ELISA_avg: 21.8
B28: D domain SEQ ID NO: 773 (designed binder)
chain: B27 chain with F5I, W9D, F15E, Y19F, V55W, A58Q, R66M

- ELISA_avg: 3.7
B29: D domain SEQ ID NO: 747 (designed binder)
chain: MGSWVEFESRLAAIEHRLWALGGSEAELAAFEKEIAAFESELQAYKGKGNPEVEELREYAAEIRDWLQAYRHN

- ELISA_avg: 4.9
B30: D domain SEQ ID NO: 766 (designed binder)
chain: B21 chain with Y5F, Y8W, N9D, W19Y, Y55E, Q58D, D62W, Q66T

- ELISA_avg: 4.5
B31: D domain SEQ ID NO: 765 (designed binder)
chain: B5 chain with E5I, E8W, W12E, I55E, Y58D, D59E, Y62W, E65D, I66S

- ELISA_avg: 4.8
B32: D domain SEQ ID NO: 757 (designed binder)
chain: B21 chain with Y8E, D12G, E15G, Y55W, Q58D, D62Y, G65A, Q66V

- ELISA_avg: 15
B33: D domain SEQ ID NO: 710 (designed binder)
chain: MGSWGEFWARLEAIWIRLDALGGSEAELAAFEKEIAAFESELQAYKGKGNPEVEWLREEAADIRRSLQAYRHN

- ELISA_avg: 10.6
B34: D domain SEQ ID NO: 733 (designed binder)
chain: MGSWNEFYDRLSAIYFRLQALGGSEAELAAFEKEIAAFESELQAYKGKGNPEVEHLRWYAADIRMILQAYRHN

- ELISA_avg: 5.3
B35: D domain SEQ ID NO: 732 (designed binder)
chain: B34 chain with N5Y, F16A, H55D, M65Y, I66M

- ELISA_avg: 4.8
B36: D domain SEQ ID NO: 736 (designed binder)
chain: B34 chain with N5V, S12H, Q19L, H55D, M65L, I66V

- ELISA_avg: 10.6
B37: D domain SEQ ID NO: 731 (designed binder)
chain: B34 chain with N5Y, D9N, F16A, H55D, M65Y, I66M

- ELISA_avg: 3.9
B38: D domain SEQ ID NO: 737 (designed binder)
chain: B34 chain with N5K, Y8D, D9N, S12Y, Y15E, F16D, Q19R

- ELISA_avg: 9
B39: D domain SEQ ID NO: 734 (designed binder)
chain: B34 chain with S24F

- ELISA_avg: 3.9
B40: D domain SEQ ID NO: 735 (designed binder)
chain: B34 chain with N5E, S12G, Y15F, F16A, Q19H, H55D
